# Test results reported in patent US6461815.
# Experiments:
# [1] = tested on: 30S ribosomal subunit (mRNA-programmed, activated; ribonucleoprotein); experiment: FP; conditions: mnm5s2U34 and other native modifications; nitrocellulose filter binding (method is filter); poly(A)-programmed; CMN buffer 20 mM MgCl2, 100 mM NH4Cl, pH 7.2, 37 C then ice
# [2] = tested on: 30S ribosomal subunit (mRNA-programmed, activated; ribonucleoprotein); experiment: filter; conditions: CMN buffer 20 mM MgCl2, pH 7.2
substance,measurement,setting,value
"E. coli tRNALys(SUU), native fully modified",Kd,[1],70 nM
"UCAGACUUUUAAUCUGA [ASLLys3(SUU), s2U34 anticodon stem-loop]",Kd,"[2]; s2U at tRNA position 34, poly(A)-programmed, also bound poly(AG)-programmed 30S",176 nM
"yeast ASLPhe(GAA), unmodified anticodon stem-loop",Kd,[2]; poly(U)-programmed,136 nM
"yeast tRNAPhe(GmAA), native",Kd,"[2]; Gm34 and other native modifications, poly(U)-programmed",103 nM
